Data: publication PMC3950706, “SUMOylation of the polycomb group protein L3MBTL2 facilitates repression of its target genes” (Nucleic Acids Research, 2013)
Where no end group is shown, it is not given here. Me3 = tri-methylation (trimethyl-lysine); Me2 = di-methylation (dimethyl-lysine)

Columns and labels:
Conditions in all cases: both partners purified
[1] = target: T1, recombinant full-length His-L3MBTL2 (human, UniProt Q969R5 1-705); assay: pull-down; histone peptides immobilised by a C-terminal cysteine on SulfoLink Coupling Resin; recombinant His-tagged proteins in 25 mM Tris-HCl pH 8, 150 mM NaCl, 2 mM EDTA, 0.5% NP 40, 1 h at 4°C (time course 5-60 min); bound protein detected by anti-His western blot; for SUMOylated L3MBTL2 the in vitro SUMOylation reaction was used
T1 construct: L3MBTL2 (Lethal(3) malignant brain tumour like 2), human, full length; also called 6xHis-L3MBTL2; His-L2; source: bacterially expressed, recombinant
T1 sequence (Q969R5 whole entry): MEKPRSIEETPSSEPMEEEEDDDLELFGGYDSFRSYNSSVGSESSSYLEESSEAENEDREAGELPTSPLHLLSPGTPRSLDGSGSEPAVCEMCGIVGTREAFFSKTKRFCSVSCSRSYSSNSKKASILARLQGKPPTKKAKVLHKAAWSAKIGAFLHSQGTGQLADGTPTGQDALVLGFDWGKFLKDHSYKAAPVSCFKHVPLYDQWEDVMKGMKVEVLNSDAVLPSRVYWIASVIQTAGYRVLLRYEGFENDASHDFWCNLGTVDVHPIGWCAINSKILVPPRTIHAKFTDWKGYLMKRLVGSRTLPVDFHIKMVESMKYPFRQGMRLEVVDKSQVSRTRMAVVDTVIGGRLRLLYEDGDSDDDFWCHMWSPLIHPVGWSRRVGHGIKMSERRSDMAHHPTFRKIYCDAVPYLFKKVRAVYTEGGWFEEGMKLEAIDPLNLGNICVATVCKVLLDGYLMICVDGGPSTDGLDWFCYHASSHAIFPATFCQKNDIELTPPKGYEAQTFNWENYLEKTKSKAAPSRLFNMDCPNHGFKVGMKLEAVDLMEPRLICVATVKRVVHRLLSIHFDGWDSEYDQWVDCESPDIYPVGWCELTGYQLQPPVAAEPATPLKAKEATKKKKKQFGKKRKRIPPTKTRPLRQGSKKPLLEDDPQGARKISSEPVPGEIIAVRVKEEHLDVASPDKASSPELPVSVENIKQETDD

wild-type 3xFLAG-L3MBTL2 = target: T2, wild-type 3xFLAG-L3MBTL2 (human, UniProt Q969R5 1-705); assay: pull-down; histone peptides immobilised on resin; 3xFLAG-L3MBTL2 immunoprecipitated from N-ethylmaleimide-treated nuclear extracts of stably transfected HEK293 cells and then incubated with the peptides; bound protein detected by anti-FLAG western blot
T2 construct: L3MBTL2, human, wild type; The cellular wild-type protein is partly SUMOylated (SUMO2/3 at K675 and K700); Associated proteins may be present after the immunoprecipitation; also called FLAG-L3MBTL2 WT; 3xFLAG-L3MBTL2 WT; source: HEK293, stably transfected, immunoprecipitated from N-ethylmaleimide-treated nuclear extracts
T2 sequence (Q969R5 whole entry): as above

[2] = target: T3, 3xFLAG-L3MBTL2 K675/700R mutant (human, UniProt Q969R5 1-705, K675/700R | K675/700R); assay: as above
T3 construct: L3MBTL2, human, with K675R and K700R; Associated proteins may be present after the immunoprecipitation; also called SUMOylation-defective L3MBTL2; K/R; source: HEK293, stably transfected, immunoprecipitated from N-ethylmaleimide-treated nuclear extracts
T3 sequence (Q969R5 other isoform, or with tags, fused parts or gaps K675/700R | K675/700R | K675/700R | K675/700R | mutant): as the sequence (Q969R5 whole entry) above, with K675R, K700R counted along it

[3] = target: T4, 4xMBT-repeat domain of L3MBTL2 (human, UniProt Q969R5 170-619); assay: pull-down; histone peptides immobilised by a C-terminal cysteine on SulfoLink Coupling Resin; recombinant His-tagged proteins in 25 mM Tris-HCl pH 8, 150 mM NaCl, 2 mM EDTA, 0.5% NP 40, 1 h at 4°C (time course 5-60 min); bound protein detected by anti-His western blot; for SUMOylated L3MBTL2 the in vitro SUMOylation reaction was used
T4 construct: L3MBTL2, human, isolated 4xMBT-repeat domain, aa 170-619; also called His-4xMBT
T4 sequence (Q969R5 170-619): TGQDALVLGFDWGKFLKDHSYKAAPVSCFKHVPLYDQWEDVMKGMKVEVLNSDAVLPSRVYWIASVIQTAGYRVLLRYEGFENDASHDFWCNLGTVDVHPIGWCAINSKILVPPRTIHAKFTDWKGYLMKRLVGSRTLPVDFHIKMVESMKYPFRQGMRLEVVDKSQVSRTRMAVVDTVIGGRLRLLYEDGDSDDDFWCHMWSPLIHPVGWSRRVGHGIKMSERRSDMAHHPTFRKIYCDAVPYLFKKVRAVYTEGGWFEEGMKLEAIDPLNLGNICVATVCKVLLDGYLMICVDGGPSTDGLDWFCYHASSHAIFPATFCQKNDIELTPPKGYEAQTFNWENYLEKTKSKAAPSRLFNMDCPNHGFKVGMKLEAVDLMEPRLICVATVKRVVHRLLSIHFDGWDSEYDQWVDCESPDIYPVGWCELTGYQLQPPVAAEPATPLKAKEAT

Measured: binding result

B1: unmethylated histone H3 peptide (residues 1-15) (peptide)
peptide: ARTKQTARKSTGGKAC
notes: histone H3, residues 1-15; added C-terminal cysteine, by which the peptide was coupled to SulfoLink resin
binds: [1] | wild-type 3xFLAG-L3MBTL2 | [2]

B2: histone H4 peptide (residues 16-25) mono-methylated at K20 (peptide)
peptide: KRHRK(Me)VLRDNC
notes: histone H4, residues 16-25; added C-terminal cysteine, by which the peptide was coupled to SulfoLink resin; also called H4K20me1
binds: [1] | wild-type 3xFLAG-L3MBTL2 | [2]

B3: histone H3 peptide (residues 1-15) mono-methylated at K9 (peptide)
peptide: ARTKQTARKSTGGKAC
modifications: monomethyl-lysine at K9
notes: histone H3, residues 1-15; added C-terminal cysteine, by which the peptide was coupled to SulfoLink resin; also called H3K9me1
binds: [1] | wild-type 3xFLAG-L3MBTL2 | [2]

B4: histone H3 peptide (residues 1-15) di-methylated at K9 (peptide)
peptide: ARTKQTARKSTGGKAC
modifications: dimethyl-lysine at K9
notes: histone H3, residues 1-15; added C-terminal cysteine, by which the peptide was coupled to SulfoLink resin; also called H3K9me2
binds: [1] | wild-type 3xFLAG-L3MBTL2 | [2]

B5: histone H3 peptide (residues 1-15) tri-methylated at K9 (peptide)
peptide: ARTKQTARKSTGGKAC
modifications: trimethyl-lysine at K9
notes: histone H3, residues 1-15; added C-terminal cysteine, by which the peptide was coupled to SulfoLink resin; also called H3K9me3
binds: [1] | wild-type 3xFLAG-L3MBTL2 | [2]

B6: histone H4 peptide (residues 16-25) tri-methylated at K20 (peptide)
peptide: KRHRK(Me3)VLRDNC
notes: histone H4, residues 16-25; added C-terminal cysteine, by which the peptide was coupled to SulfoLink resin; also called H4K20me3
binds: [1] | wild-type 3xFLAG-L3MBTL2 | [2]

B7: unmethylated histone H4 peptide (residues 16-25) (peptide)
peptide: KRHRKVLRDNC
notes: histone H4, residues 16-25; added C-terminal cysteine, by which the peptide was coupled to SulfoLink resin; also called H4K20
binds: [1] | wild-type 3xFLAG-L3MBTL2 | [2]

B8: histone H4 peptide (residues 16-25) di-methylated at K20 (peptide)
peptide: KRHRK(Me2)VLRDNC
notes: histone H4, residues 16-25; added C-terminal cysteine, by which the peptide was coupled to SulfoLink resin; also called H4K20me2
binds: [1] | [3] | wild-type 3xFLAG-L3MBTL2 | [2]
